Results: patent publication US10004792B2, “Peptides and combination of peptides for use in immunotherapy against various cancers” (immatics biotechnologies GmbH, priority 2015, dated 2018)

Columns and labels:
HLA-A*02 = HLA-A*02 (Homo sapiens, UniProt P04439, D140Y/D185E/D98H/E176V/E277Q/G131W/G231S/I119V/I121R/I166T/I218V/L300P/N151K/N90K/P208A/P217A/Q86G/Q94H/R138H/R169H); assay: MHC binding assay (UV-ligand exchange, beta2m ELISA), HLA-A*02; conditions: peptide exchange yield, binding to HLA-A*02, UV-ligand exchange, β2m ELISA
From the text: (§1) Candidate peptides for T cell based therapies according to the present invention were further tested for their MHC binding capacity (affinity). The individual peptide-MHC complexes were produced by UV-ligand exchange, where a UV-sensitive peptide is cleaved upon UV-irradiation, and exchanged with the peptide of interest as analyzed. Only peptide candidates that can effectively bind and stabilize the peptide-receptive MHC molecules prevent dissociation of the MHC complexes. To determine the yield of the exchange reaction, an ELISA was performed based on the detection of the light chain (β2m) of stabilized MHC complexes. The assay was performed as generally described in Rodenko et al. (Rodenko et al., 2006).
(§2) 96 well MAXISorp plates (NUNC) were coated over night with 2 ug/ml streptavidin in PBS at room temperature, washed 4× and blocked for 1 h at 37° C. in 2% BSA containing blocking buffer. Refolded HLA-A*02:01/MLA-001 monomers served as standards, covering the range of 15-500 ng/ml. Peptide-MHC monomers of the UV-exchange reaction were diluted 100 fold in blocking buffer. Samples were incubated for 1h at 37° C., washed four times, incubated with 2 ug/ml HRP conjugated anti-62m for 1 h at 37° C., washed again and detected with TMB solution that is stopped with […]. Absorption was measured at 450 nm. Candidate peptides that show a high exchange yield (preferably higher than 50%, most preferred higher than 75%) are generally preferred for a generation and production of antibodies or fragments thereof, and/or T cell receptors or fragments thereof, as they show sufficient avidity to the MHC molecules and prevent dissociation of the MHC complexes.

CD8+ T cells = assay: In vitro immunogenicity: T-cell priming with aAPCs loaded with peptide/MHC and anti-CD28, multimer staining; format: cell-based, human; conditions: for Wells positive [%]: in vitro immunogenicity of HLA class I peptides, peptide-specific multimer staining after aAPC priming of CD8+ T cells; for Wells (in vitro immunogenicity): healthy donor CD8+ T cells, three stimulation cycles, multimer readout
From the text: In order to obtain information regarding the immunogenicity of the TUMAPs of the present invention, the inventors performed investigations using an in vitro T-cell priming assay based on repeated stimulations of CD8+ T cells with artificial antigen presenting cells (aAPCs) loaded with peptide/MHC complexes and anti-CD28 antibody.
In order to perform in vitro stimulations by artificial antigen presenting cells loaded with peptide-MHC complex (pMHC) and anti-CD28 antibody, the inventors first isolated CD8+ T cells from fresh HLA-A*02 leukapheresis products via positive selection using CD8 microbeads (Miltenyi Biotec, Bergisch-Gladbach, Germany) of healthy donors obtained from the University clinics Mannheim, Germany, after informed consent.
PBMCs and isolated CD8+ lymphocytes were incubated in T-cell medium (TCM) until use consisting of RPMI-Glutamax (Invitrogen, Karlsruhe, Germany) supplemented with 10% heat inactivated human AB serum (PAN-Biotech, Aidenbach, Germany), 100 U/ml Penicillin/100 μg/ml Streptomycin (Cambrex, Cologne, Germany), 1 mM sodium pyruvate (CC Pro, Oberdorla, Germany), 20 µg/ml Gentamycin (Cambrex). 2.5 ng/ml IL7 (PromoCell, Heidelberg, Germany) and 10 U/ml IL-2 (Novartis Pharma, Nurnberg, Germany) were also added to the TCM at this step.
Generation of pMHC/anti-CD28 coated beads, T-cell stimulations and readout was performed in a highly defined in vitro system using four different pMHC molecules per stimulation condition and 8 different pMHC molecules per readout condition.
The purified co-stimulatory mouse IgG2a anti human CD28 Ab 9.3 (Jung et al., 1987) was chemically biotinylated using Sulfo-N-hydroxysuccinimidobiotin as recommended by the manufacturer (Perbio, Bonn, Germany). Beads used were 5.6 μm diameter streptavidin coated polystyrene particles (Bangs Laboratories, Illinois, USA).
pMHC used for positive and negative control stimulations were A*0201/MLA-001 (peptide […] (SEQ ID NO. 303) from modified Melan-A/MART-1) and A*0201/DDX5-001 ([…] from DDX5, SEQ ID NO. 304), respectively.
800.000 beads/200 μl were coated in 96-well plates in the presence of 4×12.5 ng different biotin-pMHC, washed and 600 ng biotin anti-CD28 were added subsequently in a volume of 200 μl. Stimulations were initiated in 96-well plates by co-incubating 1×10^6 CD8+ T cells with 2×10^5 washed coated beads in 200 μI TCM supplemented with 5 ng/ml IL-12 (PromoCell) for 3 days at 37° C. Half of the medium was then exchanged by fresh TCM supplemented with 80 U/ml IL-2 and incubating was continued for 4 days at 37° C. This stimulation cycle was performed for a total of three times. For the pMHC multimer readout using 8 different pMHC molecules per condition, a two-dimensional combinatorial coding approach was used as previously described (Andersen et al., 2012) with minor modifications encompassing coupling to 5 different fluorochromes. Finally, multimeric analyses were performed by staining the cells with Live/dead near IR dye (Invitrogen, Karlsruhe, Germany), CD8-FITC antibody clone SK1 (BD, Heidelberg, Germany) and fluorescent pMHC multimers. For analysis, a BD LSRII SORP cytometer equipped with appropriate lasers and filters was used. Peptide specific cells were calculated as percentage of total CD8+ cells. Evaluation of multimeric analysis was done using the FlowJo software (Tree Star, Oreg., USA). In vitro priming of specific multimer+CD8+ lymphocytes was detected by comparing to negative control stimulations.

HLA-A*24 = assay: MHC binding assay (UV-ligand exchange, beta2m ELISA), HLA-A*24; set-up: species or system human; conditions: peptide exchange yield, binding to HLA-A*24, UV-ligand exchange, β2m ELISA
From the text: as §1, §2

Row | Peptide exchange (HLA-A*02) | Substance | other results
1 | ++++ (>=75% = ++++) | 1 (LLYPEPWSV; listed as Homo sapiens) [compound 1] | 
2 | ++++ (>=75% = ++++) | 3 (KLEENGDLYL; listed as Homo sapiens) [compound 3] | 
3 | ++++ (>=75% = ++++) | 4 (KLMPGTYTL; listed as Homo sapiens) [compound 4] | Wells positive [%] (CD8+ T cells): + (<20% = +)
4 | ++++ (>=75% = ++++) | 12 (GLLPLLHRA; listed as Homo sapiens) [compound 12] | Wells positive [%] (CD8+ T cells): ++++ (>=70% = ++++)
5 | ++++ (>=75% = ++++) | 14 (ILAKDLFEI; listed as Homo sapiens) [compound 14] | 
6 | ++++ (>=75% = ++++) | 16 (YTLDIPVLFGV; listed as Homo sapiens) [compound 16] | 
7 | ++++ (>=75% = ++++) | 34 (FLLATEVVTV; listed as Homo sapiens) [compound 34] | 
8 | + (<20% = +) | 42 (LLDSVSRL; listed as Homo sapiens) [compound 42] | 
9 | ++++ (>=75% = ++++) | 51 (LLFSRLCGA; listed as Homo sapiens) [compound 51] | 
10 | + (<20% = +) | 82 (FIFDEAEKL; listed as Homo sapiens) [compound 82] | 
11 | ++++ (>=75% = ++++) | 84 (ALCPRIHEV; listed as Homo sapiens) [compound 84] | 
12 | ++++ (>=75% = ++++) | 92 (GLLFSLRSV; listed as Homo sapiens) [compound 92] | 
13 | ++++ (>=75% = ++++) | 95 (GLLGSLFFL; listed as Homo sapiens) [compound 95] | 
14 | + (<20% = +) | 100 (ALLGMIIVGV; listed as Homo sapiens) [compound 100] | 
15 | ++++ (>=75% = ++++) | 112 (SLGKFTFDV; listed as Homo sapiens) [compound 112] | 
16 | + (<20% = +) | 120 (VTPVTVSAV; listed as Homo sapiens) [compound 120] | 
17 | ++++ (>=75% = ++++) | 125 (SLADYEHFV; listed as Homo sapiens) [compound 125] | 
18 | ++++ (>=75% = ++++) | 126 (QMFQYFITV; listed as Homo sapiens) [compound 126] | 
19 | ++++ (>=75% = ++++) | 129 (RLQDILWFL; listed as Homo sapiens) [compound 129] | 
20 | ++++ (>=75% = ++++) | 133 (ALLPRLHQL; listed as Homo sapiens) [compound 133] | 
21 | ++++ (>=75% = ++++) | 147 (YLMDDTVEI; listed as Homo sapiens) [compound 147] | 
22 | ++++ (>=75% = ++++) | 153 (FISERVEVV; listed as Homo sapiens) [compound 153] | 

Row | Peptide exchange (HLA-A*02) | Substance | other results
23 |  | 158 (HYSQELSLLYL; listed as Homo sapiens) [compound 158] | Peptide exchange (HLA-A*24): ++++ (>=75% = ++++); Wells positive [%] (CD8+ T cells): + (<20% = +)
24 |  | 159 (LYNKGFIYL; listed as Homo sapiens) [compound 159] | Peptide exchange (HLA-A*24): ++++ (>=75% = ++++); Wells positive [%] (CD8+ T cells): ++++ (>=70% = ++++)
25 |  | 163 (DYLKGLASF; listed as Homo sapiens) [compound 163] | Peptide exchange (HLA-A*24): ++++ (>=75% = ++++); Wells positive [%] (CD8+ T cells): + (<20% = +)
26 |  | 165 (DYTTWTALL; listed as Homo sapiens) [compound 165] | Peptide exchange (HLA-A*24): ++++ (>=75% = ++++); Wells positive [%] (CD8+ T cells): + (<20% = +)
27 |  | 167 (NYINRILKL; listed as Homo sapiens) [compound 167] | Peptide exchange (HLA-A*24): ++++ (>=75% = ++++); Wells positive [%] (CD8+ T cells): + (<20% = +)
28 |  | 204 (TYELRYFQI; listed as Homo sapiens) [compound 204] | Peptide exchange (HLA-A*24): ++++ (>=75% = ++++); Wells positive [%] (CD8+ T cells): + (<20% = +)
29 | ++++ (>=75% = ++++) | 229 (AILAHLNTV; listed as Homo sapiens) [compound 229] | 
30 | ++++ (>=75% = ++++) | 245 (SLLDLPLSL; listed as Homo sapiens) [compound 245] | 
31 | ++++ (>=75% = ++++) | 248 (YLDRFLAGV; listed as Homo sapiens) [compound 248] | 
32 | ++++ (>=75% = ++++) | 249 (GLCERLVSL; listed as Homo sapiens) [compound 249] | Wells positive [%] (CD8+ T cells): + (<20% = +)
33 | ++++ (>=75% = ++++) | 257 (GLYTDPCGV; listed as Homo sapiens) [compound 257] | 
34 | ++++ (>=75% = ++++) | 258 (LLSERFINV; listed as Homo sapiens) [compound 258] | 
35 |  | 291 (KLDETGNSL; listed as Homo sapiens) [compound 291] | Wells (in vitro immunogenicity) (CD8+ T cells): + (<20% = +)
36 |  | 292 (GMMTAILGV; listed as Homo sapiens) [compound 292] | Wells (in vitro immunogenicity) (CD8+ T cells): + (<20% = +)
37 |  | 293 (FLVDGSWSI; listed as Homo sapiens) [compound 293] | Wells (in vitro immunogenicity) (CD8+ T cells): + (<20% = +)
38 |  | 295 (YYPGVILGF; listed as Homo sapiens) [compound 295] | Wells (in vitro immunogenicity) (CD8+ T cells): ++ (20%-49% = ++)
39 |  | 296 (TYVDSSHTI; listed as Homo sapiens) [compound 296] | Wells (in vitro immunogenicity) (CD8+ T cells): + (<20% = +)
40 |  | 297 (PFLQASPHF; listed as Homo sapiens) [compound 297] | Wells (in vitro immunogenicity) (CD8+ T cells): ++ (20%-49% = ++)
41 |  | 298 (RYLEGTSCI; listed as Homo sapiens) [compound 298] | Wells (in vitro immunogenicity) (CD8+ T cells): + (<20% = +)
42 |  | 300 (AYVLRLETL; listed as Homo sapiens) [compound 300] | Wells (in vitro immunogenicity) (CD8+ T cells): + (<20% = +)
43 |  | 301 (AYKPGALTF; listed as Homo sapiens) [compound 301] | Wells (in vitro immunogenicity) (CD8+ T cells): + (<20% = +)
